From patent publication US20230348587A1 (Astellas, published 2023)
Substitutions are numbered along the chain they refer to. One block for each binder: values may come before it.

Key:
[1] = target: T1, human mouse TSPAN8-GFP chimeric protein on CHO-K1 cell (human; mouse) (UniProt P19075); assay: flow cytometry on GFP-positive CHO-K1 cells; MFI minus MFI on mock cell
T1 sequence: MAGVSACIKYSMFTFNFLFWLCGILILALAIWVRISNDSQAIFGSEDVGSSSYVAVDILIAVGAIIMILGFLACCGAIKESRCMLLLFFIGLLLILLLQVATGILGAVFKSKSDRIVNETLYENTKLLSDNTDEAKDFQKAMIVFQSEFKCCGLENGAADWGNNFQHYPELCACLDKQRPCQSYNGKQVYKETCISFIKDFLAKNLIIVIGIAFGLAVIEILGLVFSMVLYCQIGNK

[2] = target: T2, human TSPAN8-GFP protein on wild-type human TSPAN8 expressing CHO-K1 cell (human, UniProt P19075 1-237); assay: as above
T2 construct: whole, on cells; Transiently expressed; GFP-positive cells were analysed; also called Human TSPAN8 (Wild type); not shown: GFP of the pCMV6-AC-GFP vector (ORIGENE, PS100010)
T2 chain: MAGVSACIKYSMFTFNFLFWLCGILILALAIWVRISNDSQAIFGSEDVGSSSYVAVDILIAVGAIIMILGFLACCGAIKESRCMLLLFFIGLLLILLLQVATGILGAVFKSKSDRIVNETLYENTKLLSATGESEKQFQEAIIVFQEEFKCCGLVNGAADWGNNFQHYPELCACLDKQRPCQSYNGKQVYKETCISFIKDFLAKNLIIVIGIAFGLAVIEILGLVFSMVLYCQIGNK

[3] = target: T3, human rat TSPAN8-GFP chimeric protein on CHO-K1 cell (human; rat, UniProt P19075 156-237); assay: as above
T3 construct: range 156-237; whole protein on cells; also called Human rat chimeric TSPAN8; human rat TSPAN8 chimeric protein; not shown: GFP of the pCMV6-AC-GFP vector (ORIGENE, PS100010)
T3 sequence: T1 sequence with D130E, N131T, T132S, D133N, D137E, F138V, V144A, E155R

[4] = target: T4, human TSPAN8(T131N)-GFP on CHO-K1 cell (human, UniProt P19075 1-237); assay: as above
T4 construct: whole, on cells; Transiently expressed; GFP-positive cells were analysed; also called T131N mutant; not shown: GFP of the pCMV6-AC-GFP vector (ORIGENE, PS100010)
T4 sequence (looked up): T2 chain with T131N

[5] = target: T5, human TSPAN8(T131A)-GFP on CHO-K1 cell (human, UniProt P19075 1-237); assay: as above
T5 construct: whole, on cells; Transiently expressed; GFP-positive cells were analysed; also called T131A mutant; not shown: GFP of the pCMV6-AC-GFP vector (ORIGENE, PS100010)
T5 sequence (looked up): T2 chain with T131A

[6] = target: T3, human rat TSPAN8-GFP chimeric protein …; assay: flow cytometry on GFP-positive CHO-K1 cells; against wild-type human TSPAN8 expressing CHO-K1 cell
Excerpt: (§1) Each vector produced was introduced into the CHO-K1 cell, to produce a cell transiently expressing a human TSPAN8-GFP protein, a human mouse TSPAN8-GFP chimeric protein or a human rat TSPAN8-GFP chimeric protein. The cell produced will be referred to as a wild-type human TSPAN8 expressing CHO-K1 cell, a human mouse TSPAN8 chimeric protein expressing CHO-K1 cell or a human rat TSPAN8 chimeric protein expressing CHO-K1 cell. Further, a cell in which a pCMV6-AC-GFP vector was introduced into a CHO-K1 cell (referred to as a mock cell) was produced. The bindings of 16B11, 16B12 and TAL69 to GFP-positive cells in these cells were measured by flow cytometry. No decrease in binding of TAL69 was observed either to the human rat or human mouse TSPAN8 chimeric protein expressing CHO-K1 cell. […] Meanwhile, the binding to the human mouse TSPAN8 chimeric protein expressing CHO-K1 cell attenuated as compared with that to the wild-type human TSPAN8 expressing CHO-K1 cell (FIGS. 5-1).
(§2) Further, in order to check whether or not the amino acid at position 131 of human TSPAN8 contributed to the binding of 16B11 or 16B12, a substitute of the amino acid was produced. Specifically, a vector containing a nucleotide sequence encoding a human TSPAN8-GFP fusion protein in which threonine (T) at position 131 of the amino acid sequence of human TSPAN8 in human TSPAN8-GFP of SEQ ID NO: 2 was replaced with alanine (A) or asparagine (N) (respectively referred to as “human TSPAN8(T131A)-GFP” or “human TSPAN8(T131N)-GFP”) was produced, and such a vector was transfected into the CHO-K1 cell, to construct a cell transiently expressing human TSPAN8(T131A)-GFP or human TSPAN8(T131N)-GFP. The cell constructed will be referred to as a human TSPAN8(T131A) expressing CHO-K1 cell or a human TSPAN8(T131N) expressing CHO-K1 cell. The bindings of 16B11, 16B12 and TAL69 to GFP-positive cells in these cells were measured by flow cytometry (FIGS. 5-3). As a result, the bindings of 16B11 and 16B12 to the human TSPAN8(T131A) expressing CHO-K1 cell and the human TSPAN8(T131N) expressing CHO-K1 cell attenuated as compared with the bindings to the wild-type human TSPAN8 expressing CHO-K1 cell.

[7] = target: T4, human TSPAN8(T131N)-GFP on CHO-K1 cell; assay: as above
Excerpt: as §1, §2

[8] = target: T5, human TSPAN8(T131A)-GFP on CHO-K1 cell; assay: as above
Excerpt: as §1, §2

[9] = target: T1, human mouse TSPAN8-GFP chimeric protein on CHO-K1 cell (human; mouse); assay: as above
[10] = target: T6, human TSPAN8-Myc-DDK expressed on CHO-K1 cell (human); assay: binding to human TSPAN8-Myc-DDK expressed CHO-K1 cell
T6 construct: also called TSPAN8 (Myc-DDK-tagged)-Human tetraspanin 8 (ORIGENE, RC202694)
T6 chain: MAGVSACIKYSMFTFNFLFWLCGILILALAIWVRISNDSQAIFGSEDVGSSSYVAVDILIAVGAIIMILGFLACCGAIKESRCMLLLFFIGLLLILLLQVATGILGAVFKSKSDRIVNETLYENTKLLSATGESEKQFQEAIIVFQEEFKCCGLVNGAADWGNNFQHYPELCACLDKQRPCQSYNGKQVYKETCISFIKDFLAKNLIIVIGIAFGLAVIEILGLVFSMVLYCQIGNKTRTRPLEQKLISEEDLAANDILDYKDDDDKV
Description: For further specifying an antigen, an experiment of binding to a human TSPAN8-Myc-DDK expressed CHO-K1 cell was performed. The human TSPAN8-Myc-DDK expressed CHO-K1 cell was produced by transfecting TSPAN8 (Myc-DDK-tagged)-Human tetraspanin 8 (TSPAN8) (ORIGENE, RC202694) (SEQ ID NO: 2) into a CHO-K1 cell. As a result, it was confirmed that ten antibodies of 16B11, 16B12, 5B7, 9F6, 12C12, 13A9, 15D1, 18C10, 19E4 and 21F7 (referred to also as the “ten anti-TSPAN8 antibodies”) bound to the human TSPAN8-Myc-DDK expressed CHO-K1 cell, and recognize TSPAN8 as an antigen.

[11] = target: T7, human mouse TSPAN8-GFP chimeric protein on CHO-K1 cell (human; mouse, UniProt P19075 156-237); assay: flow cytometry on GFP-positive CHO-K1 cells; MFI minus MFI on mock cell
T7 construct: range 156-237; whole protein on cells; also called Human mouse chimeric TSPAN8; human mouse TSPAN8 chimeric protein; not shown: GFP of the pCMV6-AC-GFP vector (ORIGENE, PS100010)
T7 sequence: T1 sequence

[12] = target: T7, human mouse TSPAN8-GFP chimeric protein …; assay: flow cytometry on GFP-positive CHO-K1 cells; against wild-type human TSPAN8 expressing CHO-K1 cell
Excerpt: as §1, §2

ΔMFI [1]: 5270
ΔMFI [2]: 173000
ΔMFI [3]: 161000
ΔMFI [4]: 3460
ΔMFI [5]: 23400
ΔMFI relative value [6]: 93 relative (wild-type human TSPAN8 = 100)
ΔMFI relative value (relative (wild-type human TSPAN8 = 100)) [7]: 2
ΔMFI relative value [8]: 14 relative (wild-type human TSPAN8 = 100)
ΔMFI relative value (relative (wild-type human TSPAN8 = 100)) [9]: 3
binding result [10]: binds
B1: 16B11 (antibody, V domains shown)
VH: QVQLVESGGGVVQPGRSLRLSCAASGFTFSSYGMHWVRQAPGKGLEWVAVIWYDGRNKYYADSVKGRFTISRDNSKNTLYLQMNSLRAEDTAVYYCTRDHSGSGSYYIDYWGQGTLVTVSS
VL: EIAMTQSPATLSVSPGERATLSCRASQSVSSNLAWYQQKPGQAPRLLIYGASTRATGLPARFSGSGSGTEFTLTISSLQSEDFAVYYCQQYNNFWTFGQGTKVEIKR
notes: VelocImmune hybridoma antibody: human variable regions with mouse constant regions (chimeric); Used Alexa Fluor647-labeled in some assays; also called antibody 16B11; anti-TSPAN8 antibody 16B11

ΔMFI [3]: 22400
ΔMFI [11]: 102
ΔMFI relative value [6]: 84 relative (wild-type human TSPAN8 = 100)
ΔMFI relative value [12]: 0 relative (wild-type human TSPAN8 = 100)
B2: 16B12 (antibody, V domains shown)
VH: B1 VH with T28I, R56S, V93M, T97A, S101Y, S105T
VL: B1 VL with A3V, S28T, L58F, F94W
notes: VelocImmune hybridoma antibody: human variable regions with mouse constant regions (chimeric); also called antibody 16B12; anti-TSPAN8 antibody 16B12

ΔMFI [2]: 133000
ΔMFI [3]: 96200
ΔMFI [4]: 143000
ΔMFI [11]: 305000
ΔMFI [5]: 184000
ΔMFI relative value [6]: 72 relative (wild-type human TSPAN8 = 100)
ΔMFI relative value [7]: 108 relative (wild-type human TSPAN8 = 100)
ΔMFI relative value [12]: 230 relative (wild-type human TSPAN8 = 100)
ΔMFI relative value [8]: 139 relative (wild-type human TSPAN8 = 100)
B3: Purified anti-human TSPAN8 Antibody (BioLegend, 362702 Clone TAL69) (antibody, V domains shown)
VH: EVKLLESGGGLVQPGGSMRLSCAASGFTFTDFYMNWIRQPAGKAPEWLGFIRNKASGYTTEYNPSVKGRFTISRDNTQNMLYLQMNTLRAEDTATYYCARAHSYYGYDYFDYWGQGVMVTVSS
VL: DIQMTQSPASLSASLEEIVTITCQASQDIGNWLSWYQQKPGKSPQLLIYGATSLADGVPSRFSGSRSGTQYSLKISRLQVEDIRIYYCLQAYSAPWTFGGGTKLELK
